Drawing on publication PMC10576055, this text covers pEC50 of GIP (1-42) for β-arr1 recruitment (BRET) for one molecule.

In the experiment the target is T1, GIPR-Rluc8 (human), P48546.
T1 chain: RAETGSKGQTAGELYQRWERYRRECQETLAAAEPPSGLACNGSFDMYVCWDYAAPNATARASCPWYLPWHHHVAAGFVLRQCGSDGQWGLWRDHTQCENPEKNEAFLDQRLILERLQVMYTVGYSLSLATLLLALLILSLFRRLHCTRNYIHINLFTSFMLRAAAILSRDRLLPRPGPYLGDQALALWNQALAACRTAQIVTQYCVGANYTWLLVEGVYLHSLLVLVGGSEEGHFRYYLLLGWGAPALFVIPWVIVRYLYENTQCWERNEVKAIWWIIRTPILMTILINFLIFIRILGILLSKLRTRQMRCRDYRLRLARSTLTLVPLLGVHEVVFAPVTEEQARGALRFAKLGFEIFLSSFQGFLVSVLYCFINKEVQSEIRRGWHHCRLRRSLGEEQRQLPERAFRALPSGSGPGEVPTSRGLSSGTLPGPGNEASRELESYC
Description: FRET or BRET. The note with it: remark: other sources report otherwise. For orientation: BRET reads energy transfer from a luciferase to a nearby fluorophore.

Where “and” joins values, the source holds several entries; their conditions need not be identical. Identical values can stand only once.

B1: Venus-β-arrestin 1, P49407 1-418 (natural protein)
chain: MGDKGTRVFKKASPNGKLTVYLGKRDFVDHIDLVDPVDGVVLVDPEYLKERRVYVTLTCAFRYGREDLDVLGLTFRKDLFVANVQSFPPAPEDKKPLTRLQERLIKKLGEHAYPFTFEIPPNLPCSVTLQPGPEDTGKACGVDYEVKAFCAENLEEKIHKRNSVRLVIRKVQYAPERPGPQPTAETTRQFLMSDKPLHLEASLDKEIYYHGEPISVNVHVTNNTNKTVKKIKISVRQYADICLFNTAQYKCPVAMEEADDTVAPSSTFCKVYTLTPFLANNREKRGLALDGKLKHEDTNLASSTLLREGANREILGIIVSYKVKVKLVVSRGGLLGDLASSDVAVELPFTLMHPKPKEEPPHREVPENETPVDTNLIELDTNDDDIVFEDFARQRLKGMKDDKEEEEDGTGSPQLNNR
For the molecule B1, the pEC50 of GIP (1-42) for β-arr1 recruitment (BRET) is 7.7 and 7.94 and 7.67.
